Results from article PMC8932414, “Latent TGFβ complexes are transglutaminase cross-linked to fibrillin to facilitate TGFβ activation” (Matrix Biology, 2022).

Biological target: T1, CT1-SLC (LTBP1-CT region disulphide bonded to the TGFβ1 small latent complex) (UniProt Q14766 1347-1721; P01137 30-390, disulphide bonded to the SLC)
T1 construct: TGFβ1 small latent complex (proTGFβ1: prodomain LAP and growth factor); also called LTBP1-SLC; truncated version of the LLC; source: HEK293T, co-expressed from pBUD4.1, purified from serum free media (Anti-Flag M2 resin, SEC); not shown: Twin-Strep (chain inferred)
T1 sequence (Q14766 1347-1721, chain 1 of 2): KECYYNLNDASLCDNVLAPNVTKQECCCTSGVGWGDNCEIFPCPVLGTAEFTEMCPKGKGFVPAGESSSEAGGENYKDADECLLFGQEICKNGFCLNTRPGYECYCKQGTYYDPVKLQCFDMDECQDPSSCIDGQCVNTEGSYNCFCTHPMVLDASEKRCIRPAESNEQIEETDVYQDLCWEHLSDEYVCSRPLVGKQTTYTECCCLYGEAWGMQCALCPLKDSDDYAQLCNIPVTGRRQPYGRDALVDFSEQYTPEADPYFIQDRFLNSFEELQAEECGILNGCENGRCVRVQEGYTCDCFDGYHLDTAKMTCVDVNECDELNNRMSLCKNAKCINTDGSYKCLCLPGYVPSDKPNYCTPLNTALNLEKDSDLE
T1 sequence (P01137 30-390, chain 2 of 2): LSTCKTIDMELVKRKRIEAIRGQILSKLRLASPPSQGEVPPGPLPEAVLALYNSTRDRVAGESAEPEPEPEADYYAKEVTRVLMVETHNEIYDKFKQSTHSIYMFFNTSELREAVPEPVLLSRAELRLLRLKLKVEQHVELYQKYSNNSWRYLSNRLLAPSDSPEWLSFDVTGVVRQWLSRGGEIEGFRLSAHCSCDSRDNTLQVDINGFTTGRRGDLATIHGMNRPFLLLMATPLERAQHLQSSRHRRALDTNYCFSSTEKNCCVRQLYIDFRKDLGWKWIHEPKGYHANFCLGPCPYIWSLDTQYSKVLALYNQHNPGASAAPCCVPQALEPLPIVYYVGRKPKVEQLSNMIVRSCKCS
Assay: BLI; OctetRED96; biotinylated CT1-SLC on streptavidin biosensors, PF3 100-6.25 nM; 10 mM HEPES, 150 NaCl, pH 7.4, 0.005% Tween-20, 25 °C; 1:1 Langmuir fit
Details: both partners purified

- Kd: ~6 nM
B1: fibrillin-1 N-terminal region PF3 (domain or fragment)
chain: not shown
notes: fibrillin-1, N-terminal region called PF3; P35555-1 is printed for the AlphaFold input (115-287); PF1 and PF2 are two over-lapping constructs within this region; not verified; also called fibrillin1-PF3; fibrillin PF3 fragment
